Here are results for three molecules from patent JP2007302676A (dated 2007).

The target in assay [1] is 全長ヒトインテグリンアルファ4ベータ7 (expressed in 293 cells, purified by Fib504 affinity chromatography) (human) (UniProt P13612). The assay can be described thus: Biacore SPR, Fab immobilised on CM5, alpha4beta7 injected (summary of Table 3).
For assay [2], the target named is T1, 全長ヒトインテグリンアルファ4ベータ7 (expressed in 293 cells, purified by Fib504 affinity chromatography) (human, UniProt P13612 34-1032; P26010 20-798).
T1 construct: mature; also called 固定化アルファ4ベータ7; α4β7
The assay can be described thus: phage-displayed Fab on immobilised human alpha4beta7.

B1: hu504.32 (Fab) (Fab, V domains shown)
VH: EVQLVESGGGLVQPGGSLRLSCAASGFFITNNYWGWVRQAPGKGLEWVGYISYSGSTSYNPSLKSRFTISRDTSKNTFYLQMNSLRAEDTAVYYCAMTGSSGYFDFWGQGTLVTVSS
VL: DIQMTQSPSSLSASVGDRVTITCRASESVDDLLHWYQQKPGKAPKLLIKYASQSISGVPSRFSGSGSGTDFTLTISSLQPEDFATYYCQQGNSLPNTFGQGTKVEIKR
With B1, the fold tighter binding relative to the starting rat antibody in assay [1] is 3 fold.

B2: Fib504Kグラフト (HVR graft with light chain Y49K, Fab displayed on phage) (Fab, V domains shown)
VH: EVQLVESGGGLVQPGGSLRLSCAASGFFITNNYWGWVRQAPGKGLEWVGYISYSGSTSYNPSLKSRFTISADTSKNTAYLQMNSLRAEDTAVYYCAMTGSSGYFDFWGQGTLVTVSS
VL: DIQMTQSPSSLSASVGDRVTITCRASESVDTYLHWYQQKPGKAPKLLIKYASQSISGVPSRFSGSGSGTDFTLTISSLQPEDFATYYCQQGNSLPNTFGQGTKVEIKR
notes: also called hu504Kグラフト; ヒト化504Kグラフト
As to B2, the binding result in assay [2] is listed as “no binding”.

B3: Fib504グラフト (direct HVR graft, Fab displayed on phage) (Fab, V domains shown)
VH: EVQLVESGGGLVQPGGSLRLSCAASGFFITNNYWGWVRQAPGKGLEWVGYISYSGSTSYNPSLKSRFTISADTSKNTAYLQMNSLRAEDTAVYYCAMTGSSGYFDFWGQGTLVTVSS
VL: DIQMTQSPSSLSASVGDRVTITCRASESVDTYLHWYQQKPGKAPKLLIYYASQSISGVPSRFSGSGSGTDFTLTISSLQPEDFATYYCQQGNSLPNTFGQGTKVEIKR
notes: Tested as monovalent Fab-g3 on phage (VH-CH1 fused to truncated P3); also called hu504グラフト; ヒト化抗体504グラフト
Turning to B3, the binding result in assay [2] was “no binding”.
